Laboratory results published in US20260125649A1, “MEDIUM COMPOSITION AND METHOD FOR CULTURING MESENCHYMAL STEM CELLS” (ACADEMIA SINICA, priority 2018, published 2026).

System: HMGA2
Experiment: HMGA2 expression and nuclear translocation (Western blotting, immunofluorescence, qPCR)
Type: cell-based, human
Details: EpEX 3 μg/mL
Experimental: MSCs were treated with EpEX (3 μg/mL), and the expression of HMGA2 was detected by immunofluorescence staining. […] To detect the binding of HMGA2 to Oct4 promoters, cross-linked DNA was isolated and then amplified with specific primers by qPCR. […] The gene expression of HMGA2 is detected by qPCR. MSCs were treated with let-7 mimetic and then treated with EpEX (3 μg/mL) for 12 h. The protein abundance of HMGA2 was examined by Western blotting.
Total RNA was extracted using TRI reagent (Invitrogen, CA, USA), and 5 μg of total RNA was reverse transcribed using oligo (dT) primer (Fermentas, Glen Burnie, MD, USA) with SuperScript III reverse transcriptase (Invitrogen). Quantitative real time RT-PCR (qPCR) was performed on cDNA using the Light Cycler 480 SYBR Green I Master kit (Roche Applied Science, Indianapolis, IN) and the LightCycler480 System (Roche Applied Science). The gene expression levels of each sample were normalized to the expression levels of glyceraldehyde 3-phosphate dehydrogenase (GAPDH).
Western blotting was performed as previously described (Takahashi et al., 2003). Cells were lysed in lysis buffer (150 mM NaCl, 50 mM Tris-HCl (pH 7.4), 1% Nonidet P-40), containing a protease inhibitor mix (Roche Applied Science). […]

B1: EpEX: extracellular domain of human EpCAM, 265 amino acids in length (SEQ ID NO: 2) (protein, listed as Homo sapiens)
chain: MAPPQVLAFGLLLAAATATFAAAQEECVCENYKLAVNCFVNNNRQCQCTSVGAQNTVICSKLAAKCLVMKAEMNGSKLGRRAKPEGALQNNDGLYDPDCDESGLFKAKQCNGTSMCWCVNTAGVRRTDKDTEITCSERVRTYWIIIELKHKAREKPYDSKSLRTALQKEITTRYQLDPKFITSILYENNVITIDLVQNSSQKTQNDVDIADVAYYFEKDVKGESLFHSKKMDLTVNGEQLDLDPGQTLIYYVDEKAPEFSMQGLK
- level of HMGA2: induced
- HMGA2 nuclear translocation (Western blotting and immunofluorescent staining): induced
